Experimental data taken from PMC6722581.
pKd: −log10 of the molar value.

Experiments:
[1] = target: head domain of measles virus hemagglutinin, IC-B wild-type strain (measles virus, IC-B strain) (UniProt Q786F2); assay: SPR
[2] = target: head domain of measles virus hemagglutinin, Edmonston vaccine strain (measles virus, Edmonston strain) (UniProt P08362); assay: SPR
Sequence of UniProt P08362 (P08362 149-617): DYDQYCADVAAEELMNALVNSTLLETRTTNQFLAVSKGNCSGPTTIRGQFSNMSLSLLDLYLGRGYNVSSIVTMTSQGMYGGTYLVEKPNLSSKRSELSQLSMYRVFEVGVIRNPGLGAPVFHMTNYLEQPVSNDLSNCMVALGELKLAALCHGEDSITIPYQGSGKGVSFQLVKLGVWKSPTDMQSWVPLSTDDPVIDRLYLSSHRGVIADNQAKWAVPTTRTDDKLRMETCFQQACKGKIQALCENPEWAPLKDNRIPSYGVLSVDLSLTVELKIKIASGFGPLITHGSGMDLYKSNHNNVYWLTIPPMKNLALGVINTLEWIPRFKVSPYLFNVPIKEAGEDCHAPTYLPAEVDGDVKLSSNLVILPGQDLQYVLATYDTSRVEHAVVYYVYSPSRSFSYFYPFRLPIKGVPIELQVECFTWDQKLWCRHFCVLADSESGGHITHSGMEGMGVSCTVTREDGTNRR

Sequence of UniProt Q786F2 (Q786F2 149-617): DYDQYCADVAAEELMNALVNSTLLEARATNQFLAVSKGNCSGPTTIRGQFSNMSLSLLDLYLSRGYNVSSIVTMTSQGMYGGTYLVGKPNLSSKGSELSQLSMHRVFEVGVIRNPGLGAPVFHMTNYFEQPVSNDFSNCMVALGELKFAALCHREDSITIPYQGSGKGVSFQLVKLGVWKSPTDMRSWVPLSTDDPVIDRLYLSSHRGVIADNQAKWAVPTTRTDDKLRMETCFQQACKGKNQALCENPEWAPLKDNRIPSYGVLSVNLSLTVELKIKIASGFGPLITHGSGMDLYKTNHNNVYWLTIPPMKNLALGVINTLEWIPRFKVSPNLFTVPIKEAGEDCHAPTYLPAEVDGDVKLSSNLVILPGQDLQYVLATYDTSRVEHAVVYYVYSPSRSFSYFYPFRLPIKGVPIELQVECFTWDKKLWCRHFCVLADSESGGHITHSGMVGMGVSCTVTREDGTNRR

soluble human SLAM, chimeric protein of a human V-set with a mouse C2 domain (domain or fragment)
pKd [1]: 6.35
koff [1]: 0.00637 s⁻¹
kon [1]: 14100 M⁻¹ s⁻¹
pKd [2]: 7.22
koff [2]: 0.00291 s⁻¹
kon [2]: 47900 M⁻¹ s⁻¹
